91 sequences from the supplement of paper PMC9112550, “Optimization of the antimicrobial peptide Bac7 by deep mutational scanning” (BMC Biology, 2022) can be followed below.

The data set deals with Escherichia coli TOP10. Description: shrunken log2 fold change of peptide-encoding DNA abundance (4.5 h post-induction vs induction); higher = less antimicrobial activity (less host growth inhibition). The following applies: time post-induction: 4.5 h; library: site-saturation at positions 5, 18, 19, 20.
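Note: peptides expressed intracellularly from a pBAD plasmid library in pooled LB shake-flask culture, induced with 0.3% L-arabinose, DNA abundance read by NGS, three biological replicates, DESeq2 with apeglm shrinkage.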

For the sequence RRIRIRPPRLPRPRPRPQSGPRP, the “shrunken log2 fold change” value stood at 0.00632.

Take RRIRQRPPRLPRPRPRPSIFPRP: the “shrunken log2 fold change” value is -0.635.

Regarding RRIRHRPPRLPRPRPRPVSHPRP, the “shrunken log2 fold change” value is 0.0628.

Take RRIRERPPRLPRPRPRPTYRPRP: the “shrunken log2 fold change” value was -0.0372.

Consider RRIRWRPPRLPRPRPRPDQYPRP, for which the “shrunken log2 fold change” value is -0.154.

Consider RRIRFRPPRLPRPRPRPHLCPRP, for which the “shrunken log2 fold change” value was -0.0692.

As to RRIRYRPPRLPRPRPRPLWCPRP, the “shrunken log2 fold change” value is -0.125.

Regarding RRIRFRPPRLPRPRPRPHHRPRP, the “shrunken log2 fold change” value is -0.401.

Regarding RRIRERPPRLPRPRPRPRNQPRP, the “shrunken log2 fold change” value is -0.312.

Consider RRIRCRPPRLPRPRPRPYAHPRP, for which the “shrunken log2 fold change” value was -0.189.

Regarding RRIRERPPRLPRPRPRPVTIPRP, the “shrunken log2 fold change” value was -0.233.

For RRIRMRPPRLPRPRPRPPCIPRP, the “shrunken log2 fold change” value is -0.143.

Turning to RRIRSRPPRLPRPRPRPKYQPRP, the “shrunken log2 fold change” value was -0.157.

Take RRIRSRPPRLPRPRPRPCIWPRP: the “shrunken log2 fold change” value is -0.121.

RRIRSRPPRLPRPRPRPGENPRP: the “shrunken log2 fold change” value turned out to be 0.894.

Turning to RRIRLRPPRLPRPRPRPEDWPRP, the “shrunken log2 fold change” value turned out to be 0.544.

For RRIRDRPPRLPRPRPRPKYVPRP, the “shrunken log2 fold change” value is 0.13.

Take RRIRDRPPRLPRPRPRPNSYPRP: the “shrunken log2 fold change” value was 0.179.

On to RRIRGRPPRLPRPRPRPCGCPRP, for which the “shrunken log2 fold change” value worked out at 1.09.

RRIRERPPRLPRPRPRPFNLPRP: the “shrunken log2 fold change” value is -0.233.

Turning to RRIRRRPPRLPRPRPRPCVCPRP, the “shrunken log2 fold change” value was determined as 0.082.

Regarding RRIRPRPPRLPRPRPRPHIMPRP, the “shrunken log2 fold change” value is -0.663.

Regarding RRIRSRPPRLPRPRPRPCHTPRP, the “shrunken log2 fold change” value came to 0.00383.

As to RRIRIRPPRLPRPRPRPIGHPRP, the “shrunken log2 fold change” value was -0.0672.

Consider RRIRVRPPRLPRPRPRPISGPRP, for which the “shrunken log2 fold change” value was -0.118.

RRIRFRPPRLPRPRPRPVYGPRP: the “shrunken log2 fold change” value was -0.286.

For the sequence RRIRERPPRLPRPRPRPHWTPRP, the “shrunken log2 fold change” value is -0.0453.

For RRIRWRPPRLPRPRPRPDEDPRP, the “shrunken log2 fold change” value was found to be 0.299.

Regarding RRIRWRPPRLPRPRPRPFKFPRP, the “shrunken log2 fold change” value is -0.174.

In the case of RRIRHRPPRLPRPRPRPVDKPRP, the “shrunken log2 fold change” value was -0.308.

Regarding RRIRFRPPRLPRPRPRPKPQPRP, the “shrunken log2 fold change” value came out at 0.384.

On to RRIRQRPPRLPRPRPRPIDTPRP, for which the “shrunken log2 fold change” value was -0.216.

For the sequence RRIRKRPPRLPRPRPRPSKKPRP, the “shrunken log2 fold change” value came out at 0.0529.

RRIRVRPPRLPRPRPRPPYWPRP: the “shrunken log2 fold change” value stood at 0.121.

For RRIRNRPPRLPRPRPRPNIFPRP, the “shrunken log2 fold change” value is -0.29.

Turning to RRIRDRPPRLPRPRPRPVQKPRP, the “shrunken log2 fold change” value is -0.0131.

Consider RRIRGRPPRLPRPRPRPCVLPRP, for which the “shrunken log2 fold change” value was determined as 0.158.

Take RRIRDRPPRLPRPRPRPTFHPRP: the “shrunken log2 fold change” value was -0.148.

For RRIRHRPPRLPRPRPRPHEEPRP, the “shrunken log2 fold change” value is -0.206.

Regarding RRIRHRPPRLPRPRPRPSHKPRP, the “shrunken log2 fold change” value is -0.718.

Take RRIRTRPPRLPRPRPRPHEDPRP: the “shrunken log2 fold change” value was -0.183.

In the case of RRIRKRPPRLPRPRPRPWVGPRP, the “shrunken log2 fold change” value is 0.0422.

For RRIRMRPPRLPRPRPRPEFAPRP, the “shrunken log2 fold change” value is 0.679.

Consider RRIRDRPPRLPRPRPRPFSSPRP, for which the “shrunken log2 fold change” value was -0.0177.

As to RRIRFRPPRLPRPRPRPYTQPRP, the “shrunken log2 fold change” value was -0.152.

For RRIRVRPPRLPRPRPRPVENPRP, the “shrunken log2 fold change” value stood at 0.02.

As for RRIRQRPPRLPRPRPRPGFWPRP, the “shrunken log2 fold change” value is 0.353.

With RRIRERPPRLPRPRPRPNVSPRP, the “shrunken log2 fold change” value is -0.00968.

Regarding RRIRHRPPRLPRPRPRPRETPRP, the “shrunken log2 fold change” value was found to be 0.0714.

For RRIRDRPPRLPRPRPRPDELPRP, the “shrunken log2 fold change” value is 0.414.

With RRIRQRPPRLPRPRPRPYSDPRP, the “shrunken log2 fold change” value is -0.028.

For the sequence RRIRPRPPRLPRPRPRPCRCPRP, the “shrunken log2 fold change” value was determined as 0.00981.

Regarding RRIRMRPPRLPRPRPRPCLMPRP, the “shrunken log2 fold change” value is 0.0359.

Turning to RRIRERPPRLPRPRPRPMWAPRP, the “shrunken log2 fold change” value was -0.122.

Consider RRIRTRPPRLPRPRPRPATLPRP, for which the “shrunken log2 fold change” value is -0.197.

In the case of RRIRGRPPRLPRPRPRPMNHPRP, the “shrunken log2 fold change” value came to 0.116.

Consider RRIRHRPPRLPRPRPRPIIEPRP, for which the “shrunken log2 fold change” value turned out to be 0.0811.

As to RRIRIRPPRLPRPRPRPDWMPRP, the “shrunken log2 fold change” value is -0.131.

In the case of RRIRIRPPRLPRPRPRPVEVPRP, the “shrunken log2 fold change” value was 0.0961.

For RRIRIRPPRLPRPRPRPFPIPRP, the “shrunken log2 fold change” value worked out at 0.0234.

Regarding RRIRRRPPRLPRPRPRPCTLPRP, the “shrunken log2 fold change” value was -0.49.

Consider RRIRSRPPRLPRPRPRPRGWPRP, for which the “shrunken log2 fold change” value is 0.624.

Consider RRIRGRPPRLPRPRPRPVETPRP, for which the “shrunken log2 fold change” value is 0.689.

With RRIRKRPPRLPRPRPRPAVTPRP, the “shrunken log2 fold change” value was found to be 0.0318.

On to RRIRYRPPRLPRPRPRPRGNPRP, for which the “shrunken log2 fold change” value is -0.0138.

For RRIRVRPPRLPRPRPRPNVPPRP, the “shrunken log2 fold change” value was -0.345.

For the sequence RRIRARPPRLPRPRPRPCRSPRP, the “shrunken log2 fold change” value is -0.0342.

Take RRIRERPPRLPRPRPRPTYQPRP: the “shrunken log2 fold change” value was -0.136.

For the sequence RRIRLRPPRLPRPRPRPFGCPRP, the “shrunken log2 fold change” value was -0.138.

RRIRARPPRLPRPRPRPKSVPRP: the “shrunken log2 fold change” value is 0.0188.

Consider RRIRPRPPRLPRPRPRPWYWPRP, for which the “shrunken log2 fold change” value is -0.161.

In the case of RRIRGRPPRLPRPRPRPDRNPRP, the “shrunken log2 fold change” value turned out to be 0.0753.

As to RRIRIRPPRLPRPRPRPITDPRP, the “shrunken log2 fold change” value was -0.0192.

Take RRIRNRPPRLPRPRPRPTHSPRP: the “shrunken log2 fold change” value was -0.232.

In the case of RRIRFRPPRLPRPRPRPTCCPRP, the “shrunken log2 fold change” value is -0.0828.

Take RRIRRRPPRLPRPRPRPMGVPRP: the “shrunken log2 fold change” value is 0.324.

With RRIRKRPPRLPRPRPRPTIEPRP, the “shrunken log2 fold change” value turned out to be 0.236.

Take RRIRNRPPRLPRPRPRPYKWPRP: the “shrunken log2 fold change” value was -0.233.

With RRIRRRPPRLPRPRPRPTRRPRP, the “shrunken log2 fold change” value was found to be 0.853.

As for RRIRVRPPRLPRPRPRPDADPRP, the “shrunken log2 fold change” value stood at 0.793.

As for RRIRDRPPRLPRPRPRPMSFPRP, the “shrunken log2 fold change” value was -0.00238.

For RRIRGRPPRLPRPRPRPNIDPRP, the “shrunken log2 fold change” value was determined as 0.644.

With RRIRPRPPRLPRPRPRPALWPRP, the “shrunken log2 fold change” value turned out to be 0.612.

Turning to RRIRIRPPRLPRPRPRPECPPRP, the “shrunken log2 fold change” value is -0.0846.

Take RRIRMRPPRLPRPRPRPQFSPRP: the “shrunken log2 fold change” value turned out to be 0.0281.

Consider RRIRVRPPRLPRPRPRPPHDPRP, for which the “shrunken log2 fold change” value turned out to be 0.65.

In the case of RRIRPRPPRLPRPRPRPGYAPRP, the “shrunken log2 fold change” value turned out to be 0.177.

Consider RRIRVRPPRLPRPRPRPLAMPRP, for which the “shrunken log2 fold change” value was found to be 0.209.

Take RRIRNRPPRLPRPRPRPMYTPRP: the “shrunken log2 fold change” value is -0.48.

Consider RRIRGRPPRLPRPRPRPWLPPRP, for which the “shrunken log2 fold change” value is -0.0942.

Consider RRIRCRPPRLPRPRPRPGELPRP, for which the “shrunken log2 fold change” value was 0.139.
